Measurements: patent publication US20230312743A1 (MIROBIO, published 2023)
Positions count from the first letter of the chain named. Numbers in names are those of the source.

B1: humCL19v1 hIgG1 L235N (antibody)
VH: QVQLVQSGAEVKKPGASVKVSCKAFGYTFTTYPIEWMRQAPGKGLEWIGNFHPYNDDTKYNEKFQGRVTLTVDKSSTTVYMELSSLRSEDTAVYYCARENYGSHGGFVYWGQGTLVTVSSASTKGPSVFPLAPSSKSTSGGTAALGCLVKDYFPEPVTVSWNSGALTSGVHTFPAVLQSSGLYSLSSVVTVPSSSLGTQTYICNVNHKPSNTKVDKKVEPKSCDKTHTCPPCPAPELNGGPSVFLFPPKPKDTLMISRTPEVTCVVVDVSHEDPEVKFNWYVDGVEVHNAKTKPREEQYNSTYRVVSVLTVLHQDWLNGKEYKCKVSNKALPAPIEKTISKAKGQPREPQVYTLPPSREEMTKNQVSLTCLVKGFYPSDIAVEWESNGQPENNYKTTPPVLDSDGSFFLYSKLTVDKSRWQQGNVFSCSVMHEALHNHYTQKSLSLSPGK
VL: ENQLTQSPSSLSASVGDRVTITCRASSSVISSYLHWYQQKPGKAPKLLIYSTSNLASGVPSRFSGSGSGTDYTLTISSLQPEDFATYYCQQYNSYPLTFGGGTKLEIKRTVAAPSVFIFPPSDEQLKSGTASVVCLLNNFYPREAKVQWKVDNALQSGNSQESVTEQDSKDSTYSLSSTLTLSKADYEKHKVYACEVTHQGLSSPVTKSFNRGEC
B2: humCL19v1 hIgG1 Y300N (antibody)
VH: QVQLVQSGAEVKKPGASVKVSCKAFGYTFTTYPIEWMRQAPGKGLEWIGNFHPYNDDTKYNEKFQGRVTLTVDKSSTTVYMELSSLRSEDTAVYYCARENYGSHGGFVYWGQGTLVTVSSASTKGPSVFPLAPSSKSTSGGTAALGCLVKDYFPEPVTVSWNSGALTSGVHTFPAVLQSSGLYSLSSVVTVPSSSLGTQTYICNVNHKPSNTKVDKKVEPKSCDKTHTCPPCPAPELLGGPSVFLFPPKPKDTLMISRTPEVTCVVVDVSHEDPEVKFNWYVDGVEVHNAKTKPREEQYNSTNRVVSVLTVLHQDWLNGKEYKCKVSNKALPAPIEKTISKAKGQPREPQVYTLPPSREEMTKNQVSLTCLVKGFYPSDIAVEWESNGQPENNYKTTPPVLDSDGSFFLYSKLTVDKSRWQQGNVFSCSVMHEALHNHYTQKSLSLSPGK
VL: B1 VL
B3: humCL19v1 hIgG1 V266M (antibody)
VH: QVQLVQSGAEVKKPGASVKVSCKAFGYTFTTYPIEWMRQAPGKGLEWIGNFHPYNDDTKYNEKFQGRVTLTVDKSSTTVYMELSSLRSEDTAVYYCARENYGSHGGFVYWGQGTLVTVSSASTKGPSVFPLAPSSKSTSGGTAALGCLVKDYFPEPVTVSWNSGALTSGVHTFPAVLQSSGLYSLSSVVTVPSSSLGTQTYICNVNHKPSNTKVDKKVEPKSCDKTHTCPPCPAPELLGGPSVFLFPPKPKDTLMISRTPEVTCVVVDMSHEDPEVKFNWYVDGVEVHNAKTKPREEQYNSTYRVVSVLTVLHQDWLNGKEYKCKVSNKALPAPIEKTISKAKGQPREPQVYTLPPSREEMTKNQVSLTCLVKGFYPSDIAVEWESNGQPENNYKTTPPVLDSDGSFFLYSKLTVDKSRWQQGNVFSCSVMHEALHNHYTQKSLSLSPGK
VL: B1 VL
B4: humCL19v1 hIgG1 S239I (antibody)
VH: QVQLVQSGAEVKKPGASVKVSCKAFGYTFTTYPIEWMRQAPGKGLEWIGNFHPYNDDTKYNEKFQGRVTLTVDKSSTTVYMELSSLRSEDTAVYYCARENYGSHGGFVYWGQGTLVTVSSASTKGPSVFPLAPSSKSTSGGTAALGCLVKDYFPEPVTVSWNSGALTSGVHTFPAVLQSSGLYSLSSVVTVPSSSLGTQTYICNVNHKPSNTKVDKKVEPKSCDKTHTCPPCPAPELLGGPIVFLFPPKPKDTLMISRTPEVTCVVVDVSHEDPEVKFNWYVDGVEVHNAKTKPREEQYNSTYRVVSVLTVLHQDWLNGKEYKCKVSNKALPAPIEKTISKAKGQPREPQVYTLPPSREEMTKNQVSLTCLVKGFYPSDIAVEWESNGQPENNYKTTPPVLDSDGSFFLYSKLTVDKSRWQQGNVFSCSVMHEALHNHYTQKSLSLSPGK
VL: B1 VL
B5: humCL19v1 P238D (antibody, human IgG1, kappa)
heavy: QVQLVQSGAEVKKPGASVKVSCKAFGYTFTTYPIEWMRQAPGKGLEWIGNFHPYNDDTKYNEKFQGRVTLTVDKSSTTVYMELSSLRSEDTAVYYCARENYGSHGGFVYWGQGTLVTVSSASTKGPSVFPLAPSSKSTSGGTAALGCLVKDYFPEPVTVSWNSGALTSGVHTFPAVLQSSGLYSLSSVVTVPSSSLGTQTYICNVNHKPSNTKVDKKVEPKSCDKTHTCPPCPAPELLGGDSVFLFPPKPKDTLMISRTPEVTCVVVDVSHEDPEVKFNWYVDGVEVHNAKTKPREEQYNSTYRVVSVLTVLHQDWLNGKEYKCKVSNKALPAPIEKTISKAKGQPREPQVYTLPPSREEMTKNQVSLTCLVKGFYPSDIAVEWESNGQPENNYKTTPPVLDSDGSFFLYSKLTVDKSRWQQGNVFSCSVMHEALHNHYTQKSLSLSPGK
light: B1 VL
notes: That makes them humCL19v1 P238D; also called hIgG1 P238D; P238D mutated humCL19v1
B6: humCL19v1 hIgG1 S239V (antibody)
VH: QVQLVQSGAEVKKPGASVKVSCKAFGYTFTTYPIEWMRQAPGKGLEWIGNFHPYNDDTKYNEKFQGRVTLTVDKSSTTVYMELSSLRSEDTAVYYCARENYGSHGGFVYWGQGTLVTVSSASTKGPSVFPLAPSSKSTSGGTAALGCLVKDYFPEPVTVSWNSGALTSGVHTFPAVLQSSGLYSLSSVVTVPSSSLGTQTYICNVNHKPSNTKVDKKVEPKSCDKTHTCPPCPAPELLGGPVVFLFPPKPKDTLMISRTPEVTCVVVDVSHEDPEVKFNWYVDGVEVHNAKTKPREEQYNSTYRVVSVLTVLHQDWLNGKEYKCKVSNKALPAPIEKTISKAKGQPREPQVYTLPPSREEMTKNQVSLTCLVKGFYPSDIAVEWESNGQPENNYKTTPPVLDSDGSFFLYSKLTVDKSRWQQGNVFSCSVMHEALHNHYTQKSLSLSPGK
VL: B1 VL
B7: humCL19v1 hIgG1 L235H (antibody)
VH: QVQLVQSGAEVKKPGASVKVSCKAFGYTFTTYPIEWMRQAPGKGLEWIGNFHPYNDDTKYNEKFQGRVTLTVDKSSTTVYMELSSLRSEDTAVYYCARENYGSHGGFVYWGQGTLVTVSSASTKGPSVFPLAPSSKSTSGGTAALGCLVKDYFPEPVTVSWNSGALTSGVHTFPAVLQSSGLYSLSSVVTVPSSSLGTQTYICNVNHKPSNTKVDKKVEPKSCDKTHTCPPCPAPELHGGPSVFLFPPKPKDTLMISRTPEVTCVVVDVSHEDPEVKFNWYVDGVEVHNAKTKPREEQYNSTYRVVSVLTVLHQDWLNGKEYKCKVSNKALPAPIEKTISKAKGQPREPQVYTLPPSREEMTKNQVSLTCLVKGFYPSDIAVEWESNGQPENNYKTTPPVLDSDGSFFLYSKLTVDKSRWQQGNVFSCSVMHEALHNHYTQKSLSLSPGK
VL: B1 VL

What follows are binders tested against T1, human FcγR2B (recombinant, extracellular domain only) (human, UniProt P31994 43-217) (assay: SPR (Biacore 8K), 37 C, steady state; antibody captured on immobilised human PD-1 ECD, FcR ECD as analyte).
T1 construct: extracellular domain; also called FcyR2B; FcgR2B
T1 sequence (looked up): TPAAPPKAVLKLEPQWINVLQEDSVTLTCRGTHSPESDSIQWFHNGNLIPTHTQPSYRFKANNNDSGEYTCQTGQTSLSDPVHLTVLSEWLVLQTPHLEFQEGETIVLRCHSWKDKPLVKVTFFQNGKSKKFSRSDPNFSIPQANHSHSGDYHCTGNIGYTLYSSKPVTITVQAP
Protocol: (§1) The interactions were assessed by surface plasmon resonance using a Biacore 8 K with the recombinantly expressed FcRs (extracellular domains only) as analyte. Briefly, recombinant human PD-1 extracellular domain was covalently immobilized to both flow cells of all channels of a CM5 Series S sensor chip using the GE Healthcare Amine coupling kit. […] Steady state affinity analysis was then performed by injecting varying concentrations of FcR and measuring equilibrium binding. Double referencing was used (subtracting the signal in the reference Fc1 and also subtracting the signal from a blank zero concentration injection). KD values were calculated from the Langmuir curves (plotting equilibrium binding against analyte concentration to determine the concentration required for half maximal binding).
A Kd of 59 nM was found for B1 in this work. A Kd of 6.32 nM was found for B2 in this work. A Kd of 1.54 nM was found for B3 in this work. A Kd of 3.99 nM was found for B4 in this work. A Kd of 2.79 nM was found for B5 in this work. A Kd of 3.6 nM was found for B6 in this work. A Kd of 13.6 nM was found for B7 in this work.

What follows are binders tested against T2, human FcγR2A 131R allotype (recombinant, extracellular domain only) (human, UniProt P12318 34-217) in the same assay as above.
T2 construct: extracellular domain; 131R allotype; Position 131 is the customary mature-protein numbering; also called FcyR2A (131R)
T2 sequence (looked up): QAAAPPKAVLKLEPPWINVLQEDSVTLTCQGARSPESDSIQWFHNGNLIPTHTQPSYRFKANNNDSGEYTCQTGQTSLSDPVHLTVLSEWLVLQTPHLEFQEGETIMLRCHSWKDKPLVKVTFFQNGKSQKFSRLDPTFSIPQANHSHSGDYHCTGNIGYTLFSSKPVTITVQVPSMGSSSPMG
Protocol: as §1
A Kd of 12.3 nM was found for B1 in this work. A Kd of 2.22 nM was found for B2 in this work. A Kd of 0.58 nM was found for B3 in this work. A Kd of 1.65 nM was found for B4 in this work. A Kd of 17.5 nM was found for B5 in this work. A Kd of 1.62 nM was found for B6 in this work. A Kd of 3.67 nM was found for B7 in this work.

The binders below were run against T3, human FcγR2A 131H allotype (recombinant, extracellular domain only) (human, UniProt P12318 34-217) in the same assay as above.
T3 construct: extracellular domain; 131H allotype; Position 131 is the customary mature-protein numbering; also called FcyR2A (131H)
T3 sequence (looked up): T2 sequence (looked up) with R134H
Protocol: as §1
A Kd of 13.5 nM was found for B1 in this work. A Kd of 2.83 nM was found for B2 in this work. A Kd of 6.28 nM was found for B3 in this work. A Kd of 3.38 nM was found for B4 in this work. A Kd of 90.3 nM was found for B5 in this work. A Kd of 3.13 nM was found for B6 in this work. A Kd of 3.96 nM was found for B7 in this work.
